Experimental data from patent US20220411531A1 (SUMGEN MAB BEIJING BIOTECH, published 2022).
Changes are numbered by the printed parent chain.

B1: antibody 6G12M31 (antibody, V domains shown)
VH: QVQLVQSGPGLVKPSQSLSLTCSVTGFSISSGYYWNWIRQFPGQKLEWMGYRSYDGSNNYDPSLKNRISITRDTSKNQFFLKLNSVTSEDTATYYCARGWLLHYTMDYWGQGTTVTVSS
VL: DIVMTQSPSSVSVTLGQSASISCRSSRSLLHSNGFTYLYWYLQKPGQSPQLLIYQMSNLASGVPDRFSGSGSGTDFTLKISRVEAEDVGVYYCGQNLELPLTFGGGTKLEIK
B2: antibody 6G12M41 (antibody, V domains shown)
VH: B1 VH with D61G
VL: B1 VL
B3: antibody 6G12M11 (antibody, human IgG1, kappa, V domains shown)
VH: B1 VH with S23A, D61N
VL: EIVMTQSPSSVSVTLGQSASISCRSSRSLLHSNGFTYLYWYLQKPGQSPQLLIYQMSNLASGVPDRFSGSGSGTDFTLKISRVEAEDVGVYYCGQNLELPLTFGGGTKLEIKR
B4: antibody 6G12M21 (antibody, human IgG1, kappa, V domains shown)
VH: B1 VH with D61N
VL: B3 VL with E1D

The binders below were run against T1, AXL-His (Sino Biological Inc., 6x His labels, molecular weight 47.5 Kda) (UniProt P30530-2 26-440, limits assumed) (assay: ELISA, AXL-His coated at 1 ug/ml).
T1 construct: Bought reagent; also called target antigen AXL-His; target antigen AXL; not shown: 6x His tag
T1 sequence (looked up): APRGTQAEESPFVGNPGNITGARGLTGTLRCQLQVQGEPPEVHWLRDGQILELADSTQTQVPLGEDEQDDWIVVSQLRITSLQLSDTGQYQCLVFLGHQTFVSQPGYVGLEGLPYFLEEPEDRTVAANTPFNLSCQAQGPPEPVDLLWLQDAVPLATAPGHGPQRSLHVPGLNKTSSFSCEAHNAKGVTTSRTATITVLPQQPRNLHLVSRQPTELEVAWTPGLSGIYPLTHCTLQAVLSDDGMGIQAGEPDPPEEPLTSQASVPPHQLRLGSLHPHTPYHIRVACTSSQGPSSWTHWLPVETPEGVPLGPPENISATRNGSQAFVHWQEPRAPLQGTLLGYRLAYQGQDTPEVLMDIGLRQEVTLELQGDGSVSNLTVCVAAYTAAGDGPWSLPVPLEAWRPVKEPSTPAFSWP
Description: A target antigen AXL-His (Sino Biological Inc.) was coated at 1 μg/ml on an ELISA strip, which was held at 4° C. overnight. After the ELISA strip was washed with PBST, 10% fetal bovine serum was added to the ELISA strip, which was blocked for 1 hour at 37° C. Different concentrations of antibodies 6G12M11, 6G12M21, 6G12M31 and 6G12M41 were added to react at 37° C. for 1 hour. After the ELISA strip was washed with PBST, a horseradish peroxidase-labeled goat anti-mouse secondary antibody (Goat Anti-mouse IgG HRP, Abcam) was added to react for 30 minutes at 37° C. The ELISA strip was washed 5 times with PBST, and patted and dried on absorbent paper to remove residual droplets as much as possible. 100 μl of TMB (eBioscience) was added to each well, and the ELISA strip was held for 1.5 min at room temperature (20±5° C.) in the dark. 100 μl of 2N H₂SO₄ stop solution was added to each well to terminate substrate reaction. The OD value was read at 450 nm by a microplate reader to analyze the binding ability of each antibody to the target antigen AXL. The amino acid sequence of the heavy chain of antibody 6G12M11 is as set forth in SEQ ID NO: 35, and the amino acid sequence of the light chain of the same is as set forth in SEQ ID NO: 36; the amino acid sequence of the heavy chain of antibody 6G12M21 is as set forth in SEQ ID NO: 37, and the amino acid sequence of the light chain of the same is as set forth in SEQ ID NO: 38; the VH of antibody 6G12M31 is as set forth in SEQ ID NO: 42, and the VL of the same is as set forth in SEQ ID NO: 6; and the VH of antibody 6G12M41 is as set forth in SEQ ID NO: 43, and the VL of the same is as set forth in SEQ ID NO: 6.
It can be seen that both antibodies 6G12M11 and 6G12M21 can specifically recognize the target antigen AXL.

Binder	EC50 [µg/mL]
B1	0.0211
B2	0.0176
B3	0.027
B4	0.0253

The binders below were run against T1, AXL-His (Sino Biological Inc., 6x His …) (assay: SPR (Biacore T-200), antibody captured on chip, AXL-His as analyte).
Description: In this test, the affinity of AXL-His to each of the antibodies 6G12M11, 6G12M21, 6G12M31, and 6G12M41 was detected by the surface plasmon resonance technology. The test instrument used was BIACOR biomacromolecule interaction instrument (GE Healthcare, T-200). The antibodies 6G12M11, 6G12M21, 6G12M31, and 6G12M41 were immobilized on the surface of a chip by an antibody capturing method, and with all the concentrations set to 0.5 μg/mL, were injected for 60 seconds at a flow rate of 10 μL/min. The prepared AXL-His (Sino Biological Inc., 6× His labels, molecular weight: 47.5 Kda) as a mobile phase was let to flow through the surface of the chip under 5 concentration gradients (8, 4, 2, 1, 0.5 μg/mL) respectively for interaction determination. The AXL-His underwent association for 120 s and dissociation for 1800 s at the flow rate of 30 μL/min.

Binder	Kd [nM]	koff [s⁻¹]	kon [M⁻¹ s⁻¹]
B1	29.2	0.00116	39700
B2	28.7	0.00119	41500
B3	11.7	0.00114	97400
B4	10.2	0.00114	112000

These binders were tested against T2, TYRO3-Fc (ACRO Biosystems) (UniProt Q06418 41-428, limits assumed) (assay: ELISA, TYRO3-Fc coated at 1 µg/ml, anti-human IgG Fab-HRP, OD450).
T2 construct: Bought reagent; also called TRYO3; not shown: Fc part
T2 sequence (looked up): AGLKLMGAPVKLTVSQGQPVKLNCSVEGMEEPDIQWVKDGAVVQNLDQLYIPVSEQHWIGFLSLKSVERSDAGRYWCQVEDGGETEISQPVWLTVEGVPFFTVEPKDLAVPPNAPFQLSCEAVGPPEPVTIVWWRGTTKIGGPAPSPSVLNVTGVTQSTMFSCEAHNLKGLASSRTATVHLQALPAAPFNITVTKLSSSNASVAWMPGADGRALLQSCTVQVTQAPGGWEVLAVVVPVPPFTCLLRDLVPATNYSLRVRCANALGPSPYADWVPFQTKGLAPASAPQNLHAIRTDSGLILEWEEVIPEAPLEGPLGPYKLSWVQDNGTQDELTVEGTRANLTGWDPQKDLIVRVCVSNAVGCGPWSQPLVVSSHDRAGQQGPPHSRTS
Description: AXL, TRYO3, and MER are all members of the TYRO3 receptor tyrosine kinase subfamily. To verify the recognition specificity of the antibodies 6G12M11, 6G12M21, 6G12M31 and 6G12M41, the binding ability of these antibodies to other members of the AXL family is tested by the ELISA method.
TYRO3-Fc (ACRO Biosystems), MER-His (ACRO Biosystems), and AXL-His (Sino Biological Inc.) each were coated at 1 μg/ml on an ELISA strip, which was held at 4° C. overnight. After the ELISA strips were washed with PBST, 10% fetal bovine serum was added to the ELISA strip, which was blocked for 1 hour at 37° C. Antibodies […], 6G12M21, 6G12M31 and 6G12M41 were added to react at 37° C. for 1 hour. After the ELISA strips were washed with PBST, horseradish peroxidase-labeled goat anti-human IgG Fab secondary antibodies (Goat Anti-Human IgG (Fab′)₂ (HRP), Abcam) were added to react for 30 minutes at 37° C. The ELISA strips were washed 5 times with PBST, and patted and dried on absorbent paper to remove residual droplets as much as possible. 100 μl of TMB (eBioscience, #85-00-420) was added to each well, and the ELISA strips were held for 1.5 min at room temperature (20±5° C.) in the dark. 100 μl of 2N H₂SO₄ stop solution was added to each well to terminate substrate reaction. The OD value was read at 450 nm by a microplate reader to analyze the binding ability of antibodies to the proteins.

Binder	binding result
B1	no binding (tested: about 1 µg/mL)
B2	no binding (tested: about 1 µg/mL)
B4	no binding (tested: about 1 µg/mL)
